The results in this text go back to patent publication US20230056821A1.

For orientation: pKd means the Kd on a negative log10 scale, so that one unit is a factor of ten. A higher pKd goes with a small Kd. One may read the koff as a measure of how fast the partners let go of each other. Broadly, the kon is the second-order rate constant of association. High values mean fast association, low ones slow association.

The target in experiment [1] is C3b (UniProt P01024). Put plainly: SPR, Biacore T200. For orientation: SPR reads the build-up and loss of mass on a sensor chip optically.
Experiment [2] has as its target C4b (human) (UniProt P0C0L4). In words: SPR, Biacore T200.
Experiment [3] has as its target C3b (UniProt P01024). In words: cell-based or functional assay.
Experiment [4] has as its target C4b (human) (UniProt P0C0L4). Put plainly: cell-based or functional assay.
The target of another experiment is T1, PlGF (UniProt P49763).
T1 sequence (looked up): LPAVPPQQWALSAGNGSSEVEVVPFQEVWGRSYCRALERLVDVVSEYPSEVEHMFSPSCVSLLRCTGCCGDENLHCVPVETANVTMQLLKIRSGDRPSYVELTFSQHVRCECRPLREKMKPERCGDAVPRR
In words: SPR, Biacore T200.

A further experiment concerns the target VEGF-A121 (UniProt P15692). Put plainly: SPR, Biacore T200.
Experiment [5] has as its target VEGF-A165 (human) (UniProt P15692). Put plainly: SPR, Biacore T200.
Experiment [6] shares this target. In words: cell-based or functional assay.

pKd: −log10 of the molar value.

Chain of Aflibercept injection (Fc fusion) (chain): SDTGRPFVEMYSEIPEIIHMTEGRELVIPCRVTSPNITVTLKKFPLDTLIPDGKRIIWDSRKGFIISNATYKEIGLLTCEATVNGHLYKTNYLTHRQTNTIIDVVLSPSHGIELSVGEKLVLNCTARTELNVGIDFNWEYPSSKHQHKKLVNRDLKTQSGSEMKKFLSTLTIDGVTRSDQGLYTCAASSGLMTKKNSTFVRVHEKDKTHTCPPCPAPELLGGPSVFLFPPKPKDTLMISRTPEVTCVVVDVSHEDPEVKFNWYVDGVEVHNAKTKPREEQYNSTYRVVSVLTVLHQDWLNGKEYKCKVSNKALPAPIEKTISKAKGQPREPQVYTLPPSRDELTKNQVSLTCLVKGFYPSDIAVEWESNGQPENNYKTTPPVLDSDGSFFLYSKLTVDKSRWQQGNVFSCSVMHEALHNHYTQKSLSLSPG
Chain of VEGF-A165 (human) (P15692 other isoform, or with tags, fused parts or gaps limits assumed): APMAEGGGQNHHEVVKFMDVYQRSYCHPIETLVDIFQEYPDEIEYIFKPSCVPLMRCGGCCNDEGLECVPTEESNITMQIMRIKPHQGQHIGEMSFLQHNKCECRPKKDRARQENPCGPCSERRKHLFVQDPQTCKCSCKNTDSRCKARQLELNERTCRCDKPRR
Chain of C4b (human) (P0C0L4 20-1744): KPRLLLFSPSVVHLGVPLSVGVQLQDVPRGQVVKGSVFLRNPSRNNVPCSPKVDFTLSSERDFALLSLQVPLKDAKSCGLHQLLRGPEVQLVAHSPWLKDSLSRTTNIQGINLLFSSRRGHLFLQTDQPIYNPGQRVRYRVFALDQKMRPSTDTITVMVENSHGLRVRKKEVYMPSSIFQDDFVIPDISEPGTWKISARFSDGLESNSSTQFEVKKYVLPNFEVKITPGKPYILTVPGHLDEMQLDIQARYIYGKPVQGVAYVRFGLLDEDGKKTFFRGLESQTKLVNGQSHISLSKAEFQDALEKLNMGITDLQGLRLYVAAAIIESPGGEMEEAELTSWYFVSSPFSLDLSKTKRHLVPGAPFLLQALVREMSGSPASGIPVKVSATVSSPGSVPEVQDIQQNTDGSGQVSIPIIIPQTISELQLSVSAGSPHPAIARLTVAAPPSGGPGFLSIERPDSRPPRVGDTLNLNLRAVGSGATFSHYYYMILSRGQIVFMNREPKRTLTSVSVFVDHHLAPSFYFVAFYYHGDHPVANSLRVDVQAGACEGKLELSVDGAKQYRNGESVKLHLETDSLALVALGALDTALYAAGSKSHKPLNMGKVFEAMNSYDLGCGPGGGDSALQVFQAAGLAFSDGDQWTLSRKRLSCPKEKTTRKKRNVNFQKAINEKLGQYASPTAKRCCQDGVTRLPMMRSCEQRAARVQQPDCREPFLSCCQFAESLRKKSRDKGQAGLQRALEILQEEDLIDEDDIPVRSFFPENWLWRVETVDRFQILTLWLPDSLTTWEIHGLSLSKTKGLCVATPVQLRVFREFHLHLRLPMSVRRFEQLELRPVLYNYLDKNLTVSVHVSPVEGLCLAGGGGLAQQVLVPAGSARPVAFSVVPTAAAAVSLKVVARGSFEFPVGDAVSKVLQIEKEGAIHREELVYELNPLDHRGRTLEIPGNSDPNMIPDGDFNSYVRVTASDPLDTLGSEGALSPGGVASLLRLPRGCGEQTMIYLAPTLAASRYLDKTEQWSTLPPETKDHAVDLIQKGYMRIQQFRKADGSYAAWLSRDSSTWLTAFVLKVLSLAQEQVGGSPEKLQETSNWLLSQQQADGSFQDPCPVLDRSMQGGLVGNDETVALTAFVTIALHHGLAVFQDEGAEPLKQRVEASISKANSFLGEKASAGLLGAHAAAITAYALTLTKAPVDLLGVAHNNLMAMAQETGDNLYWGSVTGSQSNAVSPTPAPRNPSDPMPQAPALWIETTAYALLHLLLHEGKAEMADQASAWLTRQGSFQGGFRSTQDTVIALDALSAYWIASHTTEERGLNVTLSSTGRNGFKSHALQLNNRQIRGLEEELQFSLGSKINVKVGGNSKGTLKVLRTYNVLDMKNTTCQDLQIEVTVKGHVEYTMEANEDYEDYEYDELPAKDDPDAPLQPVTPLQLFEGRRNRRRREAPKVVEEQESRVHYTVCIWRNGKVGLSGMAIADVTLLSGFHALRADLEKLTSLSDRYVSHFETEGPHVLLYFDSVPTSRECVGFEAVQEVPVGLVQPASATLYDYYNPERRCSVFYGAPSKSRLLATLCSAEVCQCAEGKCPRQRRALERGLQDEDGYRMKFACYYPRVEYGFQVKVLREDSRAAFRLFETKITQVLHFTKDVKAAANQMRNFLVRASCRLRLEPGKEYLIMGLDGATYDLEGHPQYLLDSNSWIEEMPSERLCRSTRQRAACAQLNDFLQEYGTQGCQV
Chain of VEGF-A121 (P15692 other isoform, or with tags, fused parts or gaps limits assumed): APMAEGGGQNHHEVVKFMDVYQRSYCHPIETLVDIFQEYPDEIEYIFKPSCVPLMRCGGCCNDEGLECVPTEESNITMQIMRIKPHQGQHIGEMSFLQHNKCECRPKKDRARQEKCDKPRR

Take “Human complement receptor type 1 (from UniProt P17927 42-1971)”: in the experiment with C3b [1], the negative-log Kd (pKd) was 9.46, the koff amounted to 0.0011 s⁻¹ and the association rate constant (kon) was determined as 3.16e+06 M⁻¹ s⁻¹. In the experiment with C4b (human) [2], this substance gave a negative logarithm of the Kd (pKd) of 7.77, an off-rate (koff) of 0.000805 s⁻¹ and a kon of 47000 M⁻¹ s⁻¹.

In the experiment with C3b [1], IBI302 (Fc fusion) showed a negative logarithm of the Kd (pKd) of 8.00, a koff of 0.00287 s⁻¹ and a kon of 288000 M⁻¹ s⁻¹. In the experiment with C4b (human) [2], this substance showed a pKd of 8.11, an off-rate (koff) of 0.00335 s⁻¹ and an on-rate constant (kon) of 432000 M⁻¹ s⁻¹. Besides, in the experiment with C3b [3], the EC50, inhibition of hemolysis of rabbit red blood cells induced by human serum complement (alternative pathway) amounted to 14.6 nM and the EC50, inhibition of hemolysis of sensitized sheep red blood cells induced by human serum complement (classical pathway) was found to be 2.51 nM. Moreover, in the experiment with C4b (human) [4], the EC50, inhibition of hemolysis of rabbit red blood cells induced by human serum complement (alternative pathway) is 14.6 nM and the EC50, inhibition of hemolysis of sensitized sheep red blood cells induced by human serum complement (classical pathway) was 2.51 nM.

Aflibercept injection (Fc fusion): in the experiment with PlGF, the pKd was 8.94, the dissociation rate constant (koff) amounted to 0.00384 s⁻¹ and the kon was 3.32e+06 M⁻¹ s⁻¹. For the same substance, in the experiment with VEGF-A121, the pKd is 11.11, the koff worked out at 4.25e-05 s⁻¹ and the kon was determined as 5.46e+06 M⁻¹ s⁻¹. In addition, in the experiment with VEGF-A165 (human) [5], the negative-log Kd (pKd) was 11.41, the koff stood at 7.93e-05 s⁻¹ and the kon worked out at 2.05e+07 M⁻¹ s⁻¹. In the experiment with VEGF-A165 (human) [6], this substance displayed an EC50 (ng/mL), inhibition of VEGF-A-induced HUVEC proliferation (CCK-8) of 41 ng/mL and an EC50, inhibition of VEGF-A-induced HUVEC proliferation (CCK-8) of 0.357 nM.
